These results are taken from US20230407373A1 (priority 2020, published 2023).

Like-named read-outs stand apart in the source and are kept apart here.

In one experiment the test system is gRNA of HCoV-OC43. The format is binding. As to conditions: for target (spectral count, OC43 Probe I RNP capture) / background (spectral count, no-probe control): type n_48_v: 48 hours post-infection; for target (spectral count, OC43 Probe I RNP capture): infected cells, unweighted spectral count; for background (spectral count, no-probe control): no-probe control on infected cells; for target (spectral count) / background (spectral count): type g_36_m, 36 hpi, Probe I; for target (spectral count): HCoV-OC43-infected HCT-8 cells; for background (spectral count): uninfected-probe control.

A further experiment relates to HCoV-OC43 gRNA and sgRNA. The format is binding. As to conditions: for target (unweighted spectral count, OC43 Probe II capture) / target (unweighted spectral count): tested against no-probe control; for target (unweighted spectral count, OC43 Probe II capture): FDR<10%; for target (unweighted spectral count): OC43 Probe II, 24 hpi (type n_24_v), infected cells; for target (unweighted spectral count, OC43 Probe II) / background (unweighted spectral count, no-probe control): type n_48_v, 48 hpi; for target (unweighted spectral count, OC43 Probe II): OC43 Probe II capture on infected cells; for background (unweighted spectral count, no-probe control): no-probe control on infected cells; for target (spectral count) / background (spectral count): type s_36_m, Probe II; for target (spectral count): HCoV-OC43-infected HCT-8 cells; for background (spectral count): uninfected-probe control.

B1: SRSF10 (protein, UniProt O75494 1-262, looked up)
Serine/arginine-rich splicing …: MSRYLRPPNTSLFVRNVADDTRSEDLRREFGRYGPIVDVYVPLDFYTRRPRGFAYVQFEDVRDAEDALHNLDRKWICGRQIEIQFAQGDRKTPNQMKAKEGRNVYSSSRYDDYDRYRRSRSRSYERRRSRSRSFDYNYRRSYSPRNSRPTGRPRRSRSHSDNDRFKHRNRSFSRSKSNSRSRSKSQPKKEMKAKSRSRSASHTKTRGTSKTDSKTHYKSGSRYEKESRKKEPPRSKSQSRSQSRSRSKSRSRSWTSPKSSGH
Consider B1, for which, in the experiment on gRNA of HCoV-OC43, the “target (spectral count, OC43 Probe I RNP capture)” value worked out at 9 and the “background (spectral count, no-probe control)” value was 1. The “target (unweighted spectral count, OC43 Probe II capture)” value with HCoV-OC43 gRNA and sgRNA (36 hpi, type n_36_v) came to 6. Further, in the experiment with HCoV-OC43 gRNA and sgRNA, the “target (unweighted spectral count)” value was 6; the “target (unweighted spectral count, OC43 Probe II)” value worked out at 9; the “background (unweighted spectral count, no-probe control)” value is reported as 1.

B2: DDX1: host protein, UniProt Q92499 (protein, UniProt Q92499 1-740, looked up)
ATP-dependent RNA helicase …: MAAFSEMGVMPEIAQAVEEMDWLLPTDIQAESIPLILGGGDVLMAAETGSGKTGAFSIPVIQIVYETLKDQQEGKKGKTTIKTGASVLNKWQMNPYDRGSAFAIGSDGLCCQSREVKEWHGCRATKGLMKGKHYYEVSCHDQGLCRVGWSTMQASLDLGTDKFGFGFGGTGKKSHNKQFDNYGEEFTMHDTIGCYLDIDKGHVKFSKNGKDLGLAFEIPPHMKNQALFPACVLKNAELKFNFGEEEFKFPPKDGFVALSKAPDGYIVKSQHSGNAQVTQTKFLPNAPKALIVEPSRELAEQTLNNIKQFKKYIDNPKLRELLIIGGVAARDQLSVLENGVDIVVGTPGRLDDLVSTGKLNLSQVRFLVLDEADGLLSQGYSDFINRMHNQIPQVTSDGKRLQVIVCSATLHSFDVKKLSEKIMHFPTWVDLKGEDSVPDTVHHVVVPVNPKTDRLWERLGKSHIRTDDVHAKDNTRPGANSPEMWSEAIKILKGEYAVRAIKEHKMDQAIIFCRTKIDCDNLEQYFIQQGGGPDKKGHQFSCVCLHGDRKPHERKQNLERFKKGDVRFLICTDVAARGIDIHGVPYVINVTLPDEKQNYVHRIGRVGRAERMGLAISLVATEKEKVWYHVCSSRGKGCYNTRLKEDGGCTIWYNEMQLLSEIEEHLNCTISQVEPDIKVPVDEFDGKVTYGQKRAAGGGSYKGHVDILAPTVQELAALEKEAQTSFLHLGYLPNQLFRTF
B2: in the experiment on gRNA of HCoV-OC43, the “target (spectral count)” value is 12; the “background (spectral count)” value is listed as 1; the “target (spectral count, OC43 Probe I RNP capture)” value was found to be 12; the “background (spectral count, no-probe control)” value was 1. For the same molecule, in the experiment with HCoV-OC43 gRNA and sgRNA (36 hpi, type n_36_v), the “target (unweighted spectral count, OC43 Probe II capture)” value stood at 9. For the same molecule, in the experiment with HCoV-OC43 gRNA and sgRNA, the “target (unweighted spectral count)” value turned out to be 7; the “target (unweighted spectral count, OC43 Probe II)” value is recorded as 11; the “background (unweighted spectral count, no-probe control)” value worked out at 1. Besides, in the experiment with HCoV-OC43 gRNA and sgRNA (36 hpi), the “target (spectral count)” value was 9 and the “background (spectral count)” value is given as 1.

B3: LRRC59 (protein, UniProt Q96AG4 1-307, looked up)
Leucine-rich …: MTKAGSKGGNLRDKLDGNELDLSLSDLNEVPVKELAALPKATILDLSCNKLTTLPSDFCGLTHLVKLDLSKNKLQQLPADFGRLVNLQHLDLLNNKLVTLPVSFAQLKNLKWLDLKDNPLDPVLAKVAGDCLDEKQCKQCANKVLQHMKAVQADQERERQRRLEVEREAEKKREAKQRAKEAQERELRKREKAEEKERRRKEYDALKAAKREQEKKPKKEANQAPKSKSGSRPRKPPPRKHTRSWAVLKLLLLLLLFGVAGGLVACRVTELQQQPLCTSVNTIYDNAVQGLRRHEILQWVLQTDSQQ
Turning to B3, in the experiment on gRNA of HCoV-OC43, the “target (spectral count, OC43 Probe I RNP capture)” value amounted to 9 and the “background (spectral count, no-probe control)” value is given as 1. Besides, the “target (unweighted spectral count, OC43 Probe II capture)” value with HCoV-OC43 gRNA and sgRNA (36 hpi, type n_36_v) came to 6. In the experiment on HCoV-OC43 gRNA and sgRNA, the “target (unweighted spectral count, OC43 Probe II)” value is listed as 5 and the “background (unweighted spectral count, no-probe control)” value was 1.

B4: HNRNPH2: host protein, UniProt P55795 (protein, UniProt P55795 1-449, looked up)
Heterogeneous nuclear …: MMLSTEGREGFVVKVRGLPWSCSADEVMRFFSDCKIQNGTSGIRFIYTREGRPSGEAFVELESEEEVKLALKKDRETMGHRYVEVFKSNSVEMDWVLKHTGPNSPDTANDGFVRLRGLPFGCSKEEIVQFFSGLEIVPNGMTLPVDFQGRSTGEAFVQFASQEIAEKALKKHKERIGHRYIEIFKSSRAEVRTHYDPPRKLMAMQRPGPYDRPGAGRGYNSIGRGAGFERMRRGAYGGGYGGYDDYGGYNDGYGFGSDRFGRDLNYCFSGMSDHRYGDGGSSFQSTTGHCVHMRGLPYRATENDIYNFFSPLNPMRVHIEIGPDGRVTGEADVEFATHEDAVAAMAKDKANMQHRYVELFLNSTAGTSGGAYDHSYVELFLNSTAGASGGAYGSQMMGGMGLSNQSSYGGPASQQLSGGYGGGYGGQSSMSGYDQVLQENSSDYQSNLA
As for B4, in the experiment with gRNA of HCoV-OC43, the “target (spectral count)” value is recorded as 12; the “background (spectral count)” value is 1; the “target (spectral count, OC43 Probe I RNP capture)” value is given as 10; the “background (spectral count, no-probe control)” value turned out to be 1. In addition, the “target (unweighted spectral count, OC43 Probe II capture)” value in the experiment on HCoV-OC43 gRNA and sgRNA (24 hpi, type n_24_v) amounted to 4. Further, the “target (unweighted spectral count, OC43 Probe II capture)” value with HCoV-OC43 gRNA and sgRNA (36 hpi, type n_36_v) is 8. Moreover, in the experiment with HCoV-OC43 gRNA and sgRNA, the “target (unweighted spectral count, OC43 Probe II)” value is reported as 10 and the “background (unweighted spectral count, no-probe control)” value came out at 1. In the experiment on HCoV-OC43 gRNA and sgRNA (36 hpi), the “target (spectral count)” value worked out at 8 and the “background (spectral count)” value was determined as 1.

B5: UPF1: host protein, UniProt Q92900 (protein, UniProt Q92900 1-1129, looked up)
Regulator of nonsense …: MSVEAYGPSSQTLTFLDTEEAELLGADTQGSEFEFTDFTLPSQTQTPPGGPGGPGGGGAGGPGGAGAGAAAGQLDAQVGPEGILQNGAVDDSVAKTSQLLAELNFEEDEEDTYYTKDLPIHACSYCGIHDPACVVYCNTSKKWFCNGRGNTSGSHIVNHLVRAKCKEVTLHKDGPLGETVLECYNCGCRNVFLLGFIPAKADSVVVLLCRQPCASQSSLKDINWDSSQWQPLIQDRCFLSWLVKIPSEQEQLRARQITAQQINKLEELWKENPSATLEDLEKPGVDEEPQHVLLRYEDAYQYQNIFGPLVKLEADYDKKLKESQTQDNITVRWDLGLNKKRIAYFTLPKTDSGNEDLVIIWLRDMRLMQGDEICLRYKGDLAPLWKGIGHVIKVPDNYGDEIAIELRSSVGAPVEVTHNFQVDFVWKSTSFDRMQSALKTFAVDETSVSGYIYHKLLGHEVEDVIIKCQLPKRFTAQGLPDLNHSQVYAVKTVLQRPLSLIQGPPGTGKTVTSATIVYHLARQGNGPVLVCAPSNIAVDQLTEKIHQTGLKVVRLCAKSREAIDSPVSFLALHNQIRNMDSMPELQKLQQLKDETGELSSADEKRYRALKRTAERELLMNADVICCTCVGAGDPRLAKMQFRSILIDESTQATEPECMVPVVLGAKQLILVGDHCQLGPVVMCKKAAKAGLSQSLFERLVVLGIRPIRLQVQYRMHPALSAFPSNIFYEGSLQNGVTAADRVKKGFDFQWPQPDKPMFFYVTQGQEEIASSGTSYLNRTEAANVEKITTKLLKAGAKPDQIGIITPYEGQRSYLVQYMQFSGSLHTKLYQEVEIASVDAFQGREKDFIILSCVRANEHQGIGFLNDPRRLNVALTRARYGVIIVGNPKALSKQPLWNHLLNYYKEQKVLVEGPLNNLRESLMQFSKPRKLVNTINPGARFMTTAMYDAREAIIPGSVYDRSSQGRPSSMYFQTHDQIGMISAGPSHVAAMNIPIPFNLVMPPMPPPGYFGQANGPAAGRGTPKGKTGRGGRQKNRFGLPGPSQTNLPNSQASQDVASQPFSQGALTQGYISMSQPSQMSQPGLSQPELSQDSYLGDEFKSQIDVALSQDSTYQGERAYQHGGVTGLSQY
For B5, in the experiment with gRNA of HCoV-OC43, the “target (spectral count, OC43 Probe I RNP capture)” value amounted to 13 and the “background (spectral count, no-probe control)” value came out at 1. Moreover, the “target (unweighted spectral count, OC43 Probe II capture)” value with HCoV-OC43 gRNA and sgRNA (36 hpi, type n_36_v) was 16. Also, in the experiment with HCoV-OC43 gRNA and sgRNA, the “target (unweighted spectral count)” value was 8; the “target (unweighted spectral count, OC43 Probe II)” value stood at 16; the “background (unweighted spectral count, no-probe control)” value is 1. Besides, in the experiment on HCoV-OC43 gRNA and sgRNA (36 hpi), the “target (spectral count)” value was determined as 16 and the “background (spectral count)” value is 1.
